Reference: US11458141B2, “Aryl hydrocarbon receptor (AhR) agonists for the prevention and treatment of inflammatory disorders” (The Johns Hopkins University, priority 2017, dated 2022)

Molecular target: T1, AHR (Mus musculus, UniProt P30561)
T1 construct: from tissue; host or cells: mouse intestine (ileum / intestinal mucosa), in vivo
T1 sequence (P30561 10-848): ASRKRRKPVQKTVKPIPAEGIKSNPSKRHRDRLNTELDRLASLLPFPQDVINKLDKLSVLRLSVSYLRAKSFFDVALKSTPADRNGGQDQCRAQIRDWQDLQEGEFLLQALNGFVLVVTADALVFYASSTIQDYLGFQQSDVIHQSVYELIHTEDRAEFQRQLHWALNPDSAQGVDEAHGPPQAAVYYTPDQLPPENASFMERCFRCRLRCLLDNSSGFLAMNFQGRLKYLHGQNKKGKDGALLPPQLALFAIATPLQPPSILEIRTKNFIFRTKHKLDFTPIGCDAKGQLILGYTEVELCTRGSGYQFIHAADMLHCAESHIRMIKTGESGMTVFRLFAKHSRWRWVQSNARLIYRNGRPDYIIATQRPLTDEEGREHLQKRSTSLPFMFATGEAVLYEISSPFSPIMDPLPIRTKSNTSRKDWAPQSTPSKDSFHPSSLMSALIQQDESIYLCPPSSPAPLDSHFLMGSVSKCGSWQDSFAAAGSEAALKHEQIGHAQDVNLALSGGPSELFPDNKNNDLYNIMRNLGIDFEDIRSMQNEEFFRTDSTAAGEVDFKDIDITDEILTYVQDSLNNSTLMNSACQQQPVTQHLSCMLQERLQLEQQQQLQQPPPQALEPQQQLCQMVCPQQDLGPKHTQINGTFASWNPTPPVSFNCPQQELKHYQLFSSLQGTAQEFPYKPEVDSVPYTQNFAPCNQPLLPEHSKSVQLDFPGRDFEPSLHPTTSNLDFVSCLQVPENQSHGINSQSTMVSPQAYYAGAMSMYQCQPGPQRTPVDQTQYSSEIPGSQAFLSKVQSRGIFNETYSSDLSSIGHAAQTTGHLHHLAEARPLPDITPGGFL
Test: AHR activation in mice by breast milk components (preliminary data)
Type: in vivo
Excerpt: iii. Other effects of breast milk. Although it is shown that breast milk inhibits TLR4 signaling in part via AHR activation (FIG. 15), potential AHR ligands within breast milk have not yet been thoroughly examined.

B1: epidermal growth factor (EGF): molecule enriched within breast milk shown to prevent NEC (protein, UniProt P01133 23-1207, looked up)
Pro-epidermal growth factor: PQHWSCPEGTLAGNGNSTCVGPAPFLIFSHGNSIFRIDTEGTNYEQLVVDAGVSVIMDFHYNEKRIYWVDLERQLLQRVFLNGSRQERVCNIEKNVSGMAINWINEEVIWSNQQEGIITVTDMKGNNSHILLSALKYPANVAVDPVERFIFWSSEVAGSLYRADLDGVGVKALLETSEKITAVSLDVLDKRLFWIQYNREGSNSLICSCDYDGGSVHISKHPTQHNLFAMSLFGDRIFYSTWKMKTIWIANKHTGKDMVRINLHSSFVPLGELKVVHPLAQPKAEDDTWEPEQKLCKLRKGNCSSTVCGQDLQSHLCMCAEGYALSRDRKYCEDVNECAFWNHGCTLGCKNTPGSYYCTCPVGFVLLPDGKRCHQLVSCPRNVSECSHDCVLTSEGPLCFCPEGSVLERDGKTCSGCSSPDNGGCSQLCVPLSPVSWECDCFPGYDLQLDEKSCAASGPQPFLLFANSQDIRHMHFDGTDYGTLLSQQMGMVYALDHDPVENKIYFAHTALKWIERANMDGSQRERLIEEGVDVPEGLAVDWIGRRFYWTDRGKSLIGRSDLNGKRSKIITKENISQPRGIAVHPMAKRLFWTDTGINPRIESSSLQGLGRLVIASSDLIWPSGITIDFLTDKLYWCDAKQSVIEMANLDGSKRRRLTQNDVGHPFAVAVFEDYVWFSDWAMPSVMRVNKRTGKDRVRLQGSMLKPSSLVVVHPLAKPGADPCLYQNGGCEHICKKRLGTAWCSCREGFMKASDGKTCLALDGHQLLAGGEVDLKNQVTPLDILSKTRVSEDNITESQHMLVAEIMVSDQDDCAPVGCSMYARCISEGEDATCQCLKGFAGDGKLCSDIDECEMGVPVCPPASSKCINTEGGYVCRCSEGYQGDGIHCLDIDECQLGEHSCGENASCTNTEGGYTCMCAGRLSEPGLICPDSTPPPHLREDDHHYSVRNSDSECPLSHDGYCLHDGVCMYIEALDKYACNCVVGYIGERCQYRDLKWWELRHAGHGQQQKVIVVAVCVVVLVMLLLLSLWGAHYYRTQKLLSKNPKNPYEESSRDVRSRRPADTEDGMSSCPQPWFVVIKEHQDLKNGGQPVAGEDGQAADGSMQPTSWRQEPQLCGMGTEQGCWIPVSSDKGSCPQVMERSFHMPSYGTQTLEGGVEKPHSLLSANPLWQQRALDPPHQMELTQ
modifications: Pro-epidermal growth factor
AHR activation: can activate AHR in mice
